Data from paper PMC5511190.

Target: GST-LRRK2 WD40 G2385R (human) (UniProt Q5S007)
Experiment: affinity purification with mass spectrometry; 5 µg GST fusion protein on glutathione-Sepharose incubated with adult mouse brain lysate or crude SV fraction (LP2) (1 mg protein) 2 h at 4 °C; washes 150 mM NaCl, 2 mM EDTA, 50 mM Tris-HCl, 0.2% Triton, pH 7.4; LC-MS/MS with label-free quantification, 4 samples per condition (GST-control, GST-WD40, GST-WD40-G2385R)

GST-LRRK2 WD40 G2385R (human), sequence (Q5S007 whole entry G2385R, the tested form may be a part): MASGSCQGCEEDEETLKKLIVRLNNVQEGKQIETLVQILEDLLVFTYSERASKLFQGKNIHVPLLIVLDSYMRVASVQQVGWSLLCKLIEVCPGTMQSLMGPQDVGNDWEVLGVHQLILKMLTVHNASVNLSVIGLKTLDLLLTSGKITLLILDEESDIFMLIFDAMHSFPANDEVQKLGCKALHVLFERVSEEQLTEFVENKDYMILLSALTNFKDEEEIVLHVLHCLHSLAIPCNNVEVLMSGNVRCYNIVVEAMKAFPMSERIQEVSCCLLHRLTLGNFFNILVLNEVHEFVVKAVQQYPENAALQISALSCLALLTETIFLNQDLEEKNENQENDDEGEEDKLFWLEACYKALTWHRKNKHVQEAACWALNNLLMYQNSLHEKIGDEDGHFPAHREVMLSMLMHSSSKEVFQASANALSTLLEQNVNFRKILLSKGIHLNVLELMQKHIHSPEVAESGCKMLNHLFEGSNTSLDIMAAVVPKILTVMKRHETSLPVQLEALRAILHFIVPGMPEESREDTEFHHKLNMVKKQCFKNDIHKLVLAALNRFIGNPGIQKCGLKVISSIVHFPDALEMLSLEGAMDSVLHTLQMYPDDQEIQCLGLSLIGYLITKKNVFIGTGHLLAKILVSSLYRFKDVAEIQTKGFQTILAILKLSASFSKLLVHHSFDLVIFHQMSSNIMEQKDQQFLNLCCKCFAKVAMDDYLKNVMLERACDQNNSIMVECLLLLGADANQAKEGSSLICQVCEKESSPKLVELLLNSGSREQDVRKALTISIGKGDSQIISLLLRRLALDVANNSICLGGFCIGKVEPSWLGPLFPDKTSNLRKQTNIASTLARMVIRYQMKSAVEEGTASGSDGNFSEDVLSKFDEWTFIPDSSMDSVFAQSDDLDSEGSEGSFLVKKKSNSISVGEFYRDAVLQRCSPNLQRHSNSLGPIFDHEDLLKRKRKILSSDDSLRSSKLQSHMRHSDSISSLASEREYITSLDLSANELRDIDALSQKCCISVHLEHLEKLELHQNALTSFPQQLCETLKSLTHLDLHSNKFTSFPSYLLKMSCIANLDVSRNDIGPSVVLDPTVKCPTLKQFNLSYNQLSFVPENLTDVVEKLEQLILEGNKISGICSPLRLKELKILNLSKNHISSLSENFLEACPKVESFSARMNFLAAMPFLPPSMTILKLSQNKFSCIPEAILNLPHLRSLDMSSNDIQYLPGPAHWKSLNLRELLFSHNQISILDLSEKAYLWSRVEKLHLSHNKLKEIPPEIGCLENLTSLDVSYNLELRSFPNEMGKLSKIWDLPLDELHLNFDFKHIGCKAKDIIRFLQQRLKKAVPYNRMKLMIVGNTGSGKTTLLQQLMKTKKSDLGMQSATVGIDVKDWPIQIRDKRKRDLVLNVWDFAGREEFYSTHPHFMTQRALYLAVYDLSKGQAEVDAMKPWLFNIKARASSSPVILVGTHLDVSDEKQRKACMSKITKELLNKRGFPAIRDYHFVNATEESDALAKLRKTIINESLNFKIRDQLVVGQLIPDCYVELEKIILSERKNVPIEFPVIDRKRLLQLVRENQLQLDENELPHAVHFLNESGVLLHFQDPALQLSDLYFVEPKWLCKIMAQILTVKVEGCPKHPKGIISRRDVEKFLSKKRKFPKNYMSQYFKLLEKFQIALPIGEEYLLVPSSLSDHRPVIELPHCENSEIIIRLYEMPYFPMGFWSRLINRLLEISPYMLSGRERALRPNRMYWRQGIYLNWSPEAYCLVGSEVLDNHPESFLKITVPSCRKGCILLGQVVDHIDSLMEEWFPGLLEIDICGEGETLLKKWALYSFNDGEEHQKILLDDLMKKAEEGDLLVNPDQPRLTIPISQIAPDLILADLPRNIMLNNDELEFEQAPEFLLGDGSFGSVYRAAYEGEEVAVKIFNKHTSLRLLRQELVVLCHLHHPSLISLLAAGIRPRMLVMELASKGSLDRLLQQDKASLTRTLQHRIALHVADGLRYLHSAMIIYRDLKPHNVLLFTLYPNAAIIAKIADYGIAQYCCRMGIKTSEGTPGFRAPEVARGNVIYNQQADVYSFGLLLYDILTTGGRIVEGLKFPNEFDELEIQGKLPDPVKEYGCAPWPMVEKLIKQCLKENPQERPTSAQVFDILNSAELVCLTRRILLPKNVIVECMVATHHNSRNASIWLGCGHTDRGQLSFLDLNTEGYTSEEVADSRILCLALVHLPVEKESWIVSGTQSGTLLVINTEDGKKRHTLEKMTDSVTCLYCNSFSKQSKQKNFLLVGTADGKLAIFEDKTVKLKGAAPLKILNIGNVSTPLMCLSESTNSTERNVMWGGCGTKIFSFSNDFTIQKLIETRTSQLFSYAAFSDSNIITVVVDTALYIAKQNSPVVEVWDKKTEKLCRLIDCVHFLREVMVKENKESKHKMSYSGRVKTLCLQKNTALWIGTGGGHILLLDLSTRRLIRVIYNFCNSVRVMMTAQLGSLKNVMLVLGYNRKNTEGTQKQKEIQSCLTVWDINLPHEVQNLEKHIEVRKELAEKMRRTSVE
Tubulin alpha-4A chain, sequence (P68368 whole entry): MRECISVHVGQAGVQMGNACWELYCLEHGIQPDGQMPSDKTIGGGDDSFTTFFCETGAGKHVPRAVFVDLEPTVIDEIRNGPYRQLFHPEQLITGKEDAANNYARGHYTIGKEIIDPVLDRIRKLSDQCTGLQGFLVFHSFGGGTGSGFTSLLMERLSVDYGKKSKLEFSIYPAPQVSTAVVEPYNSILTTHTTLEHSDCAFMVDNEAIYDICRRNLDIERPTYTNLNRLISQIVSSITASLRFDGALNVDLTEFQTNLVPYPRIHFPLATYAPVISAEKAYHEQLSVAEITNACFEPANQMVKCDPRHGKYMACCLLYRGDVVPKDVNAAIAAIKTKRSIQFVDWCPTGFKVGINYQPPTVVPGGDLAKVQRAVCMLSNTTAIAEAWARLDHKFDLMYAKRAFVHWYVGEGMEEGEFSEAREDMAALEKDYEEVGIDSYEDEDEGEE
Synapsin-2, sequence (Q64332 whole entry): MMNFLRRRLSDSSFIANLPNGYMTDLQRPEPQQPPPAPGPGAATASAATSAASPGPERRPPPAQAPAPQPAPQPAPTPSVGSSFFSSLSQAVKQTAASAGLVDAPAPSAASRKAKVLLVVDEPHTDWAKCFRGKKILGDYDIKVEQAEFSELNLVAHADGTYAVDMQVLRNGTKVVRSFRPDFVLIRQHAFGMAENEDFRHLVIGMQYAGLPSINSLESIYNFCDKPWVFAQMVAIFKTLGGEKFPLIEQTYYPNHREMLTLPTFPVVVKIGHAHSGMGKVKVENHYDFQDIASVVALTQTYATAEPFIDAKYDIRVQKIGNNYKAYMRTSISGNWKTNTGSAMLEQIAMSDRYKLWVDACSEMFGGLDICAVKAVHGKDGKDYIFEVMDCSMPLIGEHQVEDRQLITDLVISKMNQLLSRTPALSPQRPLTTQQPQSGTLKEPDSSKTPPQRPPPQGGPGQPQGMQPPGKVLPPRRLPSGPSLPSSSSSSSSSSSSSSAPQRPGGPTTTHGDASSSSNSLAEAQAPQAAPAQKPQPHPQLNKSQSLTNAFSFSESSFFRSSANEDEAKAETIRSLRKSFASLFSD
AP-2 complex subunit alpha-1, sequence (P17426 whole entry, one chain of several): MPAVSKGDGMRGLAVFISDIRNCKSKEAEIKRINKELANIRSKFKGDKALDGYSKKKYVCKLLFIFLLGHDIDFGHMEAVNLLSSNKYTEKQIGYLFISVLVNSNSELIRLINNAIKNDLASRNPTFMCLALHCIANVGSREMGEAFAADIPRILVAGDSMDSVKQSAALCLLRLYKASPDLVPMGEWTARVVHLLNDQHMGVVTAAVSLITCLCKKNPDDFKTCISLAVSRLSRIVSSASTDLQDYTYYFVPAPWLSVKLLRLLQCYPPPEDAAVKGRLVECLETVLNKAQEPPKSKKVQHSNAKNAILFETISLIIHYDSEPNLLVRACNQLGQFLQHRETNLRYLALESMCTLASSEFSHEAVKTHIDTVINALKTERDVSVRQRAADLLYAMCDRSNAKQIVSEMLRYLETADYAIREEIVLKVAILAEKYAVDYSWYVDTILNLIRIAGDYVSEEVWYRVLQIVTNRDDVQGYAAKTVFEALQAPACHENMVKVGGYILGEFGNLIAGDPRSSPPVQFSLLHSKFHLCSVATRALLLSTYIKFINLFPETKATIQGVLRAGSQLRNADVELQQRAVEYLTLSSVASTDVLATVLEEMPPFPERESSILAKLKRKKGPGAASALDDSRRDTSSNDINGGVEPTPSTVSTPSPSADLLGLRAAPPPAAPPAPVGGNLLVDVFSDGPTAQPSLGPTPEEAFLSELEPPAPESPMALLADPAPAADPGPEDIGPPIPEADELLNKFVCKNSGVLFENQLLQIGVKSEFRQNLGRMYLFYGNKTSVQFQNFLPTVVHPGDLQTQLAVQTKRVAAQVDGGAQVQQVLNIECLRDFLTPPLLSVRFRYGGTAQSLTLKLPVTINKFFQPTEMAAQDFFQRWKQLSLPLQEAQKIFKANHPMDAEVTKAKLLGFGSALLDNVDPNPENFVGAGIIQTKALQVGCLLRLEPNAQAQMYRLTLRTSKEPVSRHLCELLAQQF
Coronin-1A, sequence (O89053 whole entry): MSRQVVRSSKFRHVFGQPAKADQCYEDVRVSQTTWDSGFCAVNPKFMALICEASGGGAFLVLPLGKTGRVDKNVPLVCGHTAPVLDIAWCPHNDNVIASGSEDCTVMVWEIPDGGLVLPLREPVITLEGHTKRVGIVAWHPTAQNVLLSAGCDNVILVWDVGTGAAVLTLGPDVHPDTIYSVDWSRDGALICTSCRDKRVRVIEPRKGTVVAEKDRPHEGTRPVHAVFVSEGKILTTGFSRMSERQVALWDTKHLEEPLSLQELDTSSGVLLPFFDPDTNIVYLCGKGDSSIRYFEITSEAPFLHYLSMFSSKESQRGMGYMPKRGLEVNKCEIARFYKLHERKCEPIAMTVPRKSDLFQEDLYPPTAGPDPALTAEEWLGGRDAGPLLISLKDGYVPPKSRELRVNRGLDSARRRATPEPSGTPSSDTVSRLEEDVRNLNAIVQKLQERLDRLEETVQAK

**Q.** “14-3-3 protein epsilon (from UniProt P62259 1-255) (natural protein)” was tested. Which G2385R/WT (ratio of abundance in G2385R versus wild-type bait) did it give?
**A.** 0.37

**Q.** “Tubulin alpha-1A chain (from UniProt P68369 1-451) (natural protein)” was tested. Which G2385R/WT (ratio of abundance in G2385R versus wild-type bait) did it give?
**A.** 0.49

**Q.** How did the G2385R/WT (ratio of abundance in G2385R versus wild-type bait) turn out when “Tubulin beta-4B chain (from UniProt P68372 1-445) (natural protein)” was run?
**A.** 0.49

**Q.** With “Synapsin-2 (from UniProt Q64332 1-586) (natural protein)” as the substance, how does the G2385R/WT (ratio of abundance in G2385R versus wild-type bait) read?
**A.** 0.53

**Q.** “Ras-related protein Rab-1A (from UniProt P62821 1-205) (natural protein)” was tested. Which G2385R/WT (ratio of abundance in G2385R versus wild-type bait) did it give?
**A.** 0.62

**Q.** With “Actin-related protein 2/3 complex subunit 1 A (from UniProt Q9R0Q6 1-370) (natural protein)” as the substance, how does the G2385R/WT (ratio of abundance in G2385R versus wild-type bait) read?
**A.** 0.26

**Q.** Which G2385R/WT (ratio of abundance in G2385R versus wild-type bait) does the source give for “Dihydropyrimidinase-related protein 1 (from UniProt P97427 1-572) (natural protein)” here?
**A.** 0.42

**Q.** “Dihydropyrimidinase-related protein 4 (from UniProt O35098 1-572) (natural protein)” was tested. Which G2385R/WT (ratio of abundance in G2385R versus wild-type bait) did it give?
**A.** 0.46

**Q.** For “Coronin-1A (from UniProt O89053 1-461) (natural protein)”, which G2385R/WT (ratio of abundance in G2385R versus wild-type bait) is on record?
**A.** 0.37

**Q.** “F-actin-capping protein subunit alpha-2 (from UniProt P47754 1-286) (natural protein)” was tested. Which G2385R/WT (ratio of abundance in G2385R versus wild-type bait) did it give?
**A.** 0.5

**Q.** With “Tubulin beta-4A chain (from UniProt Q9D6F9 1-444) (natural protein)” as the substance, how does the G2385R/WT (ratio of abundance in G2385R versus wild-type bait) read?
**A.** 0.39

**Q.** How did the G2385R/WT (ratio of abundance in G2385R versus wild-type bait) turn out when “Tubulin alpha-4A chain (from UniProt P68368 1-448) (natural protein)” was run?
**A.** 0.53

**Q.** How did the G2385R/WT (ratio of abundance in G2385R versus wild-type bait) turn out when “AP-2 complex subunit alpha-1 (from UniProt P17426 1-977) (natural protein)” was run?
**A.** 0.44
